Reference: paper PMC12207360, “Hyperpolarization Modulation of the T‐Type hCav3.2 Channel by Human Synenkephalin [1–53], a Shrew Neurotoxin Analogue without Paralytic Effects” (Angewandte Chemie (International Ed. in English), 2025)
Where no end group is shown, it is not given here.

Type: physicochemical
Details: cysteine/cystine redox condition, 20% EtOH / 0.1 M aq. NH4OAc, pH 8.5, 37 °C; misfolded products predominantly converted to 2
Description: We first examined the preparation of hSYN from the linear precursor peptide 1 (Scheme 1a). Oxidation of 1 in air or with DMSO gave only misfolded analogues with two (2SS) and/or three (3SS) disulfide bonds (Figure S1a,b). Meanwhile, a redox condition using cysteine / cystine in EtOH / aq. NH4OAc^[ [51] ^] smoothly promoted the formation of three disulfide bonds to afford hSYN (2) in 65% yield almost as a single isomer, along with trace amounts of misfolded 3SS analogue. […]
SH 前述の 22 の混合物に、前述のバッファーSHB (290 µL; 第四章第一節第四項) に溶解したSH 21SH
N-terminal segment(7.2 mg, 2.1 µmol) と TCEP-HCl (0.32 mg, 1.1 µmol) C-terminal segmentを加えた。6 M 水酸化ナトリウム水溶液1 で反応溶液を pH 7.0 に調整した後、室温で 22 時間攪拌した。得られた混合物を ODS カ
ラムクロマトグラフィー [COSMOSIL 75 C18 OPN (φ 8 x 8 mm), MeCN / H2O (0.1% TFA) = 0:1 Linear peptide 1. […]
rate 1.0 mL/min, UV 215 nm (A; 0.1% aq. TFA, B; 0.08% TFA/MeCN) ]. MS (MALDI-TO F ) m/z 3001.0 (calculated for […]
2: tR 12.2 min [Develosil® ODS HG-5 (5 µm, f 4.6 mm × 250 mm), temp. […] 40 °C, 25% for 10 min and 25–45% linear gradient for 20 min, flow rate […], UV215 nm (A; 0.1% aq. TFA, B; 0.08% TFA/MeCN), see Figure S7]; MS (MALDI-TO F ) m/z 2998.0 (calculated […]

## human synenkephalin [1–53] (ECSQDCATCSYRLVRPADINFLACVMECEGKLPSLKIWETCKELLQLSKPELP; disulfide (positions not given here); also: Type II disulfides, places not given here; UniProt P01210 25-77, looked up, fragment) [compound 2, human synenkephalin N-terminal part [1–53], three disulfide bonds Cys(I)–Cys(V), Cys(II)–Cys(IV), Cys(III)–Cys(VI)]
  thermodynamic stability: most thermodynamically stable
